Kd data for two substances are collected here from PMC8597016.

The target in this assay is Biotinylated CD11b I domain (human). Description: BLI. In general terms: In BLI a coated tip is dipped into the sample, and binding shifts an interference pattern.

Take CC8 LukAB (complex): the Kd (in general, the equilibrium constant for the complex coming apart) is 9.41 nM.
Regarding CC30 LukAB (complex), the Kd came out at 214 nM.
